This is an account of results in US20190233495A1 (Sanofi, published 2019).

The assay concerns the target T1, RXFP1 receptor (UniProt Q9HBX9 1-757, limits assumed).
T1 sequence (looked up): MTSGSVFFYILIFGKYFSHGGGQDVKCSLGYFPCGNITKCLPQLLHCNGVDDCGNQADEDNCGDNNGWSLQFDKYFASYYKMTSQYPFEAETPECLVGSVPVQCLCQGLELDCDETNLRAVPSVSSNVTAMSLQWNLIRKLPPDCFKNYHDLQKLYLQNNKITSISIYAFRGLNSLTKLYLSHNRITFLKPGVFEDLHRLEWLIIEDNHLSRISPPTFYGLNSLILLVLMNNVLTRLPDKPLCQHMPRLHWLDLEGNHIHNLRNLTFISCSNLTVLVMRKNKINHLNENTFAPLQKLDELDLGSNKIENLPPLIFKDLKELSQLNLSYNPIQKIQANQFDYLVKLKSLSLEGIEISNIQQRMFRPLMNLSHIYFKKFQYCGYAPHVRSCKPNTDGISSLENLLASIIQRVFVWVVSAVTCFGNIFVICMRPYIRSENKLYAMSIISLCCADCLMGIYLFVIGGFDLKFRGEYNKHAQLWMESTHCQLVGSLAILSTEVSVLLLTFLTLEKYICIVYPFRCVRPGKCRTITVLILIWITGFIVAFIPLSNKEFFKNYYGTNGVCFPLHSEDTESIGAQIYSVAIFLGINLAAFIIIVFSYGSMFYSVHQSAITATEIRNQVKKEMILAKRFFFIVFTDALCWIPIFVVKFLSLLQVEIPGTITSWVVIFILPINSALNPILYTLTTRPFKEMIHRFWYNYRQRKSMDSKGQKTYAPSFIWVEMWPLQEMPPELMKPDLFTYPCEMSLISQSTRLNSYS
The assay is described as follows: cell-based or functional assay.

Non-standard residues stand in square brackets, D forms with d. 1Nal = N[C@@H](Cc1cccc2ccccc12)C(=O)O; Nle = CCCC[C@H](N)C(=O)O; Aib = CC(C)(N)C(=O)O

B1: SEQ ID NO: 17 (peptide)
peptide: Ac-LEGREKVRAAI[Aib][Aib]EG[Nle]STWS[Aib]RKK-NH2
SMILES: CCCC[C@H](NC(=O)CNC(=O)[C@H](CCC(=O)O)NC(=O)C(C)(C)NC(=O)C(C)(C)NC(=O)[C@@H](NC(=O)[C@H](C)NC(=O)[C@H](C)NC(=O)[C@H](CCCNC(=N)N)NC(=O)[C@@H](NC(=O)[C@H](CCCCN)NC(=O)[C@H](CCC(=O)O)NC(=O)[C@H](CCCNC(=N)N)NC(=O)CNC(=O)[C@H](CCC(=O)O)NC(=O)[C@H](CC(C)C)NC(C)=O)C(C)C)[C@@H](C)CC)C(=O)N[C@@H](CO)C(=O)N[C@H](C(=O)N[C@@H](Cc1c[nH]c2ccccc12)C(=O)N[C@@H](CO)C(=O)NC(C)(C)C(=O)N[C@@H](CCCNC(=N)N)C(=O)N[C@@H](CCCCN)C(=O)N[C@@H](CCCCN)C(N)=O)[C@@H](C)O
Consider B1, for which the “cAMP assay in OVCAR 5 cells EC50” value came out at 11.6 nM and the “cAMP assay in OVCAR 5 cells Emax” value is 90%.

B2: SEQ ID NO: 11 (peptide)
peptide: Ac-[Aib]EGREKVRAQI[Aib][Aib]EGMSKWSKRKK-NH2
SMILES: CC[C@H](C)[C@H](NC(=O)[C@H](CCC(N)=O)NC(=O)[C@H](C)NC(=O)[C@H](CCCNC(=N)N)NC(=O)[C@@H](NC(=O)[C@H](CCCCN)NC(=O)[C@H](CCC(=O)O)NC(=O)[C@H](CCCNC(=N)N)NC(=O)CNC(=O)[C@H](CCC(=O)O)NC(=O)C(C)(C)NC(C)=O)C(C)C)C(=O)NC(C)(C)C(=O)NC(C)(C)C(=O)N[C@@H](CCC(=O)O)C(=O)NCC(=O)N[C@@H](CCSC)C(=O)N[C@@H](CO)C(=O)N[C@@H](CCCCN)C(=O)N[C@@H](Cc1c[nH]c2ccccc12)C(=O)N[C@@H](CO)C(=O)N[C@@H](CCCCN)C(=O)N[C@@H](CCCNC(=N)N)C(=O)N[C@@H](CCCCN)C(=O)N[C@@H](CCCCN)C(N)=O
Turning to B2, the “cAMP assay in OVCAR 5 cells EC50” value came out at 44.8 nM and the “cAMP assay in OVCAR 5 cells Emax” value is 102%.

B3: SEQ ID NO: 2 (peptide)
peptide: Ac-LEGREKVRAQI[Aib][Aib]EGMSKWSKRKK-NH2
SMILES: CC[C@H](C)[C@H](NC(=O)[C@H](CCC(N)=O)NC(=O)[C@H](C)NC(=O)[C@H](CCCNC(=N)N)NC(=O)[C@@H](NC(=O)[C@H](CCCCN)NC(=O)[C@H](CCC(=O)O)NC(=O)[C@H](CCCNC(=N)N)NC(=O)CNC(=O)[C@H](CCC(=O)O)NC(=O)[C@H](CC(C)C)NC(C)=O)C(C)C)C(=O)NC(C)(C)C(=O)NC(C)(C)C(=O)N[C@@H](CCC(=O)O)C(=O)NCC(=O)N[C@@H](CCSC)C(=O)N[C@@H](CO)C(=O)N[C@@H](CCCCN)C(=O)N[C@@H](Cc1c[nH]c2ccccc12)C(=O)N[C@@H](CO)C(=O)N[C@@H](CCCCN)C(=O)N[C@@H](CCCNC(=N)N)C(=O)N[C@@H](CCCCN)C(=O)N[C@@H](CCCCN)C(N)=O
In the case of B3, the “cAMP assay in OVCAR 5 cells EC50” value amounted to 14.4 nM and the “cAMP assay in OVCAR 5 cells Emax” value worked out at 99%.

B4: SEQ ID NO: 15 (peptide)
peptide: Ac-LEGREKVRAQI[Aib][Aib]EG[Nle]ST[1Nal]SKRKK-NH2
SMILES: CCCC[C@H](NC(=O)CNC(=O)[C@H](CCC(=O)O)NC(=O)C(C)(C)NC(=O)C(C)(C)NC(=O)[C@@H](NC(=O)[C@H](CCC(N)=O)NC(=O)[C@H](C)NC(=O)[C@H](CCCNC(=N)N)NC(=O)[C@@H](NC(=O)[C@H](CCCCN)NC(=O)[C@H](CCC(=O)O)NC(=O)[C@H](CCCNC(=N)N)NC(=O)CNC(=O)[C@H](CCC(=O)O)NC(=O)[C@H](CC(C)C)NC(C)=O)C(C)C)[C@@H](C)CC)C(=O)N[C@@H](CO)C(=O)N[C@H](C(=O)N[C@@H](Cc1cccc2ccccc12)C(=O)N[C@@H](CO)C(=O)N[C@@H](CCCCN)C(=O)N[C@@H](CCCNC(=N)N)C(=O)N[C@@H](CCCCN)C(=O)N[C@@H](CCCCN)C(N)=O)[C@@H](C)O
For B4, the “cAMP assay in OVCAR 5 cells EC50” value was 24.4 nM and the “cAMP assay in OVCAR 5 cells Emax” value was 104%.

B5: SEQ ID NO: 16 (peptide)
peptide: Ac-LEGREKVRAAI[Aib][Aib]EGMSTWSKRKK-NH2
SMILES: CC[C@H](C)[C@H](NC(=O)[C@H](C)NC(=O)[C@H](C)NC(=O)[C@H](CCCNC(=N)N)NC(=O)[C@@H](NC(=O)[C@H](CCCCN)NC(=O)[C@H](CCC(=O)O)NC(=O)[C@H](CCCNC(=N)N)NC(=O)CNC(=O)[C@H](CCC(=O)O)NC(=O)[C@H](CC(C)C)NC(C)=O)C(C)C)C(=O)NC(C)(C)C(=O)NC(C)(C)C(=O)N[C@@H](CCC(=O)O)C(=O)NCC(=O)N[C@@H](CCSC)C(=O)N[C@@H](CO)C(=O)N[C@H](C(=O)N[C@@H](Cc1c[nH]c2ccccc12)C(=O)N[C@@H](CO)C(=O)N[C@@H](CCCCN)C(=O)N[C@@H](CCCNC(=N)N)C(=O)N[C@@H](CCCCN)C(=O)N[C@@H](CCCCN)C(N)=O)[C@@H](C)O
Take B5: the “cAMP assay in OVCAR 5 cells EC50” value came out at 4.6 nM and the “cAMP assay in OVCAR 5 cells Emax” value was 101%.

B6: SEQ ID NO: 12 (peptide)
peptide: H-[Aib]EGREKVRAQI[Aib][Aib]EGMSKWSKRKK-NH2
SMILES: CC[C@H](C)[C@H](NC(=O)[C@H](CCC(N)=O)NC(=O)[C@H](C)NC(=O)[C@H](CCCNC(=N)N)NC(=O)[C@@H](NC(=O)[C@H](CCCCN)NC(=O)[C@H](CCC(=O)O)NC(=O)[C@H](CCCNC(=N)N)NC(=O)CNC(=O)[C@H](CCC(=O)O)NC(=O)C(C)(C)N)C(C)C)C(=O)NC(C)(C)C(=O)NC(C)(C)C(=O)N[C@@H](CCC(=O)O)C(=O)NCC(=O)N[C@@H](CCSC)C(=O)N[C@@H](CO)C(=O)N[C@@H](CCCCN)C(=O)N[C@@H](Cc1c[nH]c2ccccc12)C(=O)N[C@@H](CO)C(=O)N[C@@H](CCCCN)C(=O)N[C@@H](CCCNC(=N)N)C(=O)N[C@@H](CCCCN)C(=O)N[C@@H](CCCCN)C(N)=O
For the molecule B6, the “cAMP assay in OVCAR 5 cells EC50” value stood at 28.2 nM and the “cAMP assay in OVCAR 5 cells Emax” value is 99%.

B7: SEQ ID NO: 10 (peptide)
peptide: Ac-LEGREKVRAQI[Aib][Aib]EGMSTWSKRKK-NH2
SMILES: CC[C@H](C)[C@H](NC(=O)[C@H](CCC(N)=O)NC(=O)[C@H](C)NC(=O)[C@H](CCCNC(=N)N)NC(=O)[C@@H](NC(=O)[C@H](CCCCN)NC(=O)[C@H](CCC(=O)O)NC(=O)[C@H](CCCNC(=N)N)NC(=O)CNC(=O)[C@H](CCC(=O)O)NC(=O)[C@H](CC(C)C)NC(C)=O)C(C)C)C(=O)NC(C)(C)C(=O)NC(C)(C)C(=O)N[C@@H](CCC(=O)O)C(=O)NCC(=O)N[C@@H](CCSC)C(=O)N[C@@H](CO)C(=O)N[C@H](C(=O)N[C@@H](Cc1c[nH]c2ccccc12)C(=O)N[C@@H](CO)C(=O)N[C@@H](CCCCN)C(=O)N[C@@H](CCCNC(=N)N)C(=O)N[C@@H](CCCCN)C(=O)N[C@@H](CCCCN)C(N)=O)[C@@H](C)O
Take B7: the “cAMP assay in OVCAR 5 cells EC50” value was 22.9 nM and the “cAMP assay in OVCAR 5 cells Emax” value came out at 103%.

B8: SEQ ID NO: 13 (peptide)
peptide: Ac-LEGREKVRAQI[Aib][Aib]EG[Nle]STWSKRKK-NH2
SMILES: CCCC[C@H](NC(=O)CNC(=O)[C@H](CCC(=O)O)NC(=O)C(C)(C)NC(=O)C(C)(C)NC(=O)[C@@H](NC(=O)[C@H](CCC(N)=O)NC(=O)[C@H](C)NC(=O)[C@H](CCCNC(=N)N)NC(=O)[C@@H](NC(=O)[C@H](CCCCN)NC(=O)[C@H](CCC(=O)O)NC(=O)[C@H](CCCNC(=N)N)NC(=O)CNC(=O)[C@H](CCC(=O)O)NC(=O)[C@H](CC(C)C)NC(C)=O)C(C)C)[C@@H](C)CC)C(=O)N[C@@H](CO)C(=O)N[C@H](C(=O)N[C@@H](Cc1c[nH]c2ccccc12)C(=O)N[C@@H](CO)C(=O)N[C@@H](CCCCN)C(=O)N[C@@H](CCCNC(=N)N)C(=O)N[C@@H](CCCCN)C(=O)N[C@@H](CCCCN)C(N)=O)[C@@H](C)O
In the case of B8, the “cAMP assay in OVCAR 5 cells EC50” value amounted to 19.2 nM and the “cAMP assay in OVCAR 5 cells Emax” value came to 97%.

B9: SEQ ID NO: 14 (peptide)
peptide: Ac-LEGREKVRAQI[Aib][Aib]EG[Nle]SK[1Nal]SKRKK-NH2
SMILES: CCCC[C@H](NC(=O)CNC(=O)[C@H](CCC(=O)O)NC(=O)C(C)(C)NC(=O)C(C)(C)NC(=O)[C@@H](NC(=O)[C@H](CCC(N)=O)NC(=O)[C@H](C)NC(=O)[C@H](CCCNC(=N)N)NC(=O)[C@@H](NC(=O)[C@H](CCCCN)NC(=O)[C@H](CCC(=O)O)NC(=O)[C@H](CCCNC(=N)N)NC(=O)CNC(=O)[C@H](CCC(=O)O)NC(=O)[C@H](CC(C)C)NC(C)=O)C(C)C)[C@@H](C)CC)C(=O)N[C@@H](CO)C(=O)N[C@@H](CCCCN)C(=O)N[C@@H](Cc1cccc2ccccc12)C(=O)N[C@@H](CO)C(=O)N[C@@H](CCCCN)C(=O)N[C@@H](CCCNC(=N)N)C(=O)N[C@@H](CCCCN)C(=O)N[C@@H](CCCCN)C(N)=O
B9: the “cAMP assay in OVCAR 5 cells EC50” value was found to be 32.8 nM and the “cAMP assay in OVCAR 5 cells Emax” value was 106%.
